B1: 9 (protein, listed as Streptomyces rubrolavendulae)
chain: MTADEAVEAALGALDLDTKARLLAGQDMWTLPAVPAVGLASLVMSDGPVGVRGVRWTADDPSVTLPSPTALAACWDPELARRAGRLLAQEARRKGVHVVLAPTVNLHRSPLGGRHFEAYSEDPYLTAETGAACVRGIQDGGVAATVKHFVANDAETDRFTVDNTVPPRALRELYLAPFEAIVRCARPWALMAAYNQVNGVTMTENRHLQTEVLRDAWGFDGVVVSDWFAARSTTGALVGGLDVAMPGPHTVYGDALAAAVRAGDVDEALVDRSVRRVLRLAARVGALEGAEPAVPSPPAHVDGEALAREIAHRSFVLVRNECGALPLDPARSRRVALVGAAARDARVLGGGSAHVFPARTVSPLDGLAAALPEGTELVHARGADLSGEPAPAGPGFALRAVCRDAEGTVLADVPLPSGQIQWIGADLPGGVTHEALHTVEVTGTYTPREGGAHGFGTRGVGAFTLTVGGRVLYDGTREAEPAGDPFEAFAGTPAEHGAADLAEGVPVEVSLRHTVDRDRPAPLPAVVFSLLHRPPRRDPDELIAEAVEAARGADAAVVVVATTERVESEGFDRADLRLPGRQDDLVRAVAAANPRTVVVVNAGAPVEMPWRDDVAAVLLTWFPGQEGGAALADVLLGAEEPGGRLPTTWPAALADAPVTAVTPVDGELRYEEGPFIGYRAWDRAPGGPAPAYPFGHGLGYTTWEYESLVVTPATARVRVRNTGTRPGREVIQLYVAPRADLAERPARWLVGFASVTAGPGARAEAEIRFAPRPFDVWDEEAGAWTAVPGQYEIRAGRSLTDTRLTVTLELD
B2: 325 (protein, listed as Ilumatobacter coccineus)
chain: MTGTSTGARRGIICGVIDIDAALNALSLADKCRLVAGETNWRTKAFPEAGIPQLKMSDGPTGIRGEGHGSAGTPGVAVPAGITLGASWDPDLLGEIGDLLGREAVRKRAHVLLGPTVNLHRTPIGGRTFECYSEDPELSGALAASYVRAVQRHDVAVTVKHFVCNDTEIDRMTVDVDVDERPLRELYLRPFERAVKEGGAWGIMTAYNRVAGEFAAQNRRLLTDILRGEWGFDGFAVSDWFGVHEPVGAANAGLTLEMPAPVRVYGDRLLAAIEAGSVTEETVDGLVRDLLGVMNRTKADERNCDEPELSIDDPAERALTRRAAIGGTVLLRNEPIDSSGHPVLPVALDGLASMAVIGPNAVIDRSMGGGSASLTPFDHRTLLDALSDRVGPDTDVRYEPGVRIDRLTPIVRSARLRTPDGADGLRLEYVNGTDWDAPATIDTVTSSSMIRFFGTTPDEIDATAFGARVSGSFVPEIDGPHEIGVVSTGPVTMTARTGDGDPIVVVDDPDMLLPRTREFFGYGSEESVATVECRAGEPVHLEVKWRTSAENGFAALRIGVRPPEPSDLIDRAVAAAAEADVAVVVVGTNDEWETEGFDREVMSLPGRQDELVERVVAANPNTVVVVNAGSPVSMDWAADDHPRPAAAIVTSFFAGQEQAEAMVDVLTGVADPAGRLPITYPQRLADTPAFEHHEPVRSAGRPPQQRYAEGLFIGHRHYEANDVAPRFWLGHGLSYGSVEWSTPTASRTSDTAASLDDSPIVVSLSLTNTSDRDATSVVQCYVAPIAPSVERPVRELKAWAKESLPAQARRDVSIELGSSAFRHWDEESGAWKVEPGEYDIVVATSADPDDEHERLRITIT
B3: 324 (protein, listed as Kluyveromyces marxianus)
chain: MSKFDVEQLLSELNQDEKISLLSAVDFWHTKKIERLGIPAVRVSDGPNGIRGTKFFDGVPSGCFPNGTGLASTFDRDLLETAGKLMAKESIAKNAAVILGPTTNMQRGPLGGRGFESFSEDPYLAGMATSSVVKGMQGEGIAATVKHFVCNDLEDQRFSSNSIVSERALREIYLEPFRLAVKHANPVCIMTAYNKVNGEHCSQSKKLLIDILRDEWKWDGMLMSDWFGTYTTAAAIKNGLDIEFPGPTRWRTRALVSHSLNSREQITTEDVDDRVRQVLKMIKFVVDNLEKTGIVENGPESTSNNTKETSDLLRKIAADSIVLLKNKNNILPLKKEDNIIVIGPNAKAKTSSGGGSASMNSYYVVSPYEGIVNKLGKEVDYTVGAYSHKSIGGLAESSLIDAAKPADAENSGLIAKFYSNPVEERSDDEEPFHVTKVNRSNVHLFDFKHEKVDPKNPYFFVTLTGQYVPQEDGDYIFSLQVYGSGLFYLNDELIIDQKHNQERGSFCFGAGTKERTKKLTLKKGQVYNVRVEYGSGPTSGLVGEFGAGGFQAGVIKAIDDDEEIRNAAELAAKHDKAVLIIGLNGEWETEGYDRENMDLPKRTNELVRAVLKANPNTVIVNQSGTPVEFPWLEDANALVQAWYGGNELGNAIADVLYGDVVPNGKLSLSWPFKLQDNPAFLNFKTEFGRVIYGEDIFVGYRYYEKLQRKVAFPFGYGLSYTTFELDISDFKVTDDKIAISVDVKNTGDKFAGSEVVQVYFSALNSKVSRPVKELKGFEKVHLEPGEKKTVNIDLELKDAISYFNEELGKWHVEAGEYLVSVGTSSDDILSVKEFKVEKELYWKGL
B4: 338 (protein, listed as Hungateiclostridium thermocellum)
chain: MAVDIKKIIKQMTLEEKAGLCSGLDFWHTKPVERLGIPSIMMTDGPHGLRKQREDAEIADINNSVPATCFPSAAGLACSWDRELVERVGAALGEECQAENVSILLGPGANIKRSPLCGRNFEYFSEDPYLSSELAASHIKGVQSQGVGACLKHFAANNQEHRRMTVDTIVDERTLREIYFASFENAVKKARPWVVMCAYNKLNGEYCSENRYLLTEVLKNEWMHDGFVVSDWGAVNDRVSGLDAGLDLEMPTSHGITDKKIVEAVKSGKLSENILNRAVERILKVIFMALENKKENAQYDKDAHHRLARQAAAESMVLLKNEDDVLPLKKSGTIALIGAFVKKPRYQGSGSSHITPTRLDDIYEEIKKAGGDKVNLVYSEGYRLENDGIDEELINEAKKAASSSDVAVVFAGLPDEYESEGFDRTHMSIPENQNRLIEAVAEVQSNIVVVLLNGSPVEMPWIDKVKSVLEAYLGGQALGGALADVLFGEVNPSGKLAETFPVKLSHNPSYLNFPGEDDRVEYKEGLFVGYRYYDTKGIEPLFPFGHGLSYTKFEYSDISVDKKDVSDNSIINVSVKVKNVGKMAGKEIVQLYVKDVKSSVRRPEKELKGFEKVFLNPGEEKTVTFTLDKRAFAYYNTQIKDWHVESGEFLILIGRSSRDIVLKESVRVNSTVKIRKRFTVNSAVEDVMSDSSAAAVLGPVLKEITDALQIDMDNAHDMMAANIKNMPLRSLVGYSQGRLSEEMLEELVDKINNVE
B5: 240 (protein, listed as Acidipropionibacterium acidipropionici)
chain: MTELTDLPQYLLIRLLSGADDWRTVAAGEVGVRSLHLSDGPHGLRVPDVKGGSLPATCFPTAVTLGASWDRDLAEEVGGALAVEAGALGVDVVLGPGMNIKRHPLGGRNFEYLSEDPVVSGELAAAMVRGIQGRGVAACVKHFAVNNQETMRLCVDAVVDERTLHEIYLAAFETVVRTARPAAVMASYNEINGTAATTNRSLITEVLRGRWGFDGLVMSDWGAVWDRVAALEAGLDLEMPSSAGAFDRSVAAALDSGRLGLDAVLTSVSRLVGLQNRISPPRIDRIPADEHDALARRAATAGTVLAANDGILPLAAGSKVAVIGAFAARPRYQGSGSSQVNPTRVTGLLEALGAKDVEVGYARGYDPEEQRTDAVLVAEAAELAAASDVAVVVTGPPEELESEGYDRTGMDLPAQHDALVRAVLAANPRTVIVVCSGSPVALPWADRAAAVVLAGLGGQAGGGALADVLVGDAEPGGRLAETWPHDLSEVASDPWFPGTGAMVQYREGSAIGYRHTATNGVEPAFCFGHGLSYTRFDWRDAVLTEPWIVAGDGLSVDVEVANVGDRAGSDVVQVYLSDRTGVVSRPRRWLAGFAKVRLEAGQSRRVQVAVGARELGFWDVEKHDWVVPSGHFDVELGRSAHDIVATLDLVVSEGADHAPERAWTPLIAEDDEAFAARLGHEIPRPAATTPFTARSTLGQVRHTPLGGLLHAAAMRRLAAGVRDPRFRRMMEHTVDELPLRNLPSMTKGLVPLESVSLIVDVLNGAPDEILRRSFGGALGLGRGVVDAGRGLWGELSSRIGRLGR
B6: 319 (protein)
chain: MTAAPSDKELLALLSQLTTAEKVLLLSGKSTWETPEIERLHVPSLKVSDGPNGARGAQFTDGTTAACFPACVSLAATFNRSLARQIGVALGEETQTKGAYVLLGPTVCPHRSPLGGRNFESFSEDPFLTGELASEYVVGLQSQRVAATVKHFAINEQDTRRFTVNETVSERAMREIYLRPFEIVVKKADPWCIMTSYPKVNGAYVDDQTTFLKDILRDEWKFKGLVMTDWGAASAAIANGIRNGLDLEMPGPPHRRQPAVVHKLIEDGKVDVKDIDDRVLPLLKLLRQTGKFTDRREPVPERAISRPEHEKLIREAGGEGVVLLKNSDGALPLKPSHLQNIAVLGPLAKHAAAHGGGSASLNCHYKISPFDAIKSRLPDSKLSYSKGAHVFRAYPDFVAGTRNRLGNPGFAADFYENLNLTGEPFYTEEYPRGSFMTLMNENVVTAKSARLSTAYSPNVSGKHYLSFSGMGPARLFINGEFQGEIKETAEAMSFLLGVQEERHLQYDFVTGKTYDIVIESTISPNPNAELYLADDQIAVHLGFVSQQEMDADVLSEAVSFAKDADVALIFVGNTPQWETEGQDMATMTLPADGSQDKLIAEVAKVNPNTIVIITTGVPVELPWLENVAAVVQAWYGGQETGNSILDVLLGEVNPSGRLPMSWPKKNEHTACYGHFGLDSWDSREVEYVEGVNVGYRHFDSQYGTEQEVMFPFGYGLSYSTFEHSACALSGTLDANDENAKITVAVTVHNTSDVAGSEVVQVYVTPPKSRTGVERPPKALVAFEKIHLNPGAQKDIQLTFKRDGAAFWSEARKLWEVEAGEHEVHVSTSSSPQDIKSTLVLGITKGFTFHP
modifications: Colletotrichum gloeosporioides

Experiments:
Type in all cases: biochemical, Quillaja saponaria
[1] = Experiment 4-2: screening of glucosidases for deglycosylation with purified QS-18 (1 mg/ml) at pH 6 and 30 deg C; settings: pH 6, 30 degC, 18 hrs, clarified lysate, LCMS/MS
Procedure, shortened: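 Clarified lysates of glucosidase-expressing cells in 100 mM potassium phosphate pH 6 were incubated 18 h at 30 °C with QS-18 at 1 mg/ml final. Reactions quenched with MeCN; deglycosylation activity determined by LC-MS/MS.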

[2] = Experiment 4-4: screening of glucosidases for deglycosylation of QS-18 in crude bark extract (1 in 20 dilution) to QS-21; settings: CBE 1 in 20 dilution, pH 6, 25 degC, 18 hours; % conversion of Middle Peak by UV HPLC
Experimental: Lysates were prepared as in Experiment 4-2.
Crude bark extract (CBE) was adjusted to pH 6 by dropwise addition of 2M NaOH with stirring. 25 uL of clarified lysate was transferred to a reaction plate, 22.5 ul of 100 mM potassium phosphate buffer pH 6 was added, 2.5 ul CBE at pH 6 was added. Reaction plates were sealed, incubated at 25 degC with shaking for 18 hours, then quenched by addition of 50 uL acetonitrile (MeCN). Quenched reaction plates were re-sealed and incubated at 20 degC with shaking for 10 min. The reaction plates were centrifuged (10 min, 4 degC) and analysed by UV HPLC with the method below:
Three key peaks of interest are apparent using this chromatography: Left Peak (retention time approximately 2.30-2.35 min) comprising mainly QS-17 family components; Middle Peak (retention time approximately 2.37-2.42 min) comprising mainly QS-18 family components and desglucosyl-QS-17 family components; and Right Peak (retention time approximately 2.44-2.50 min) comprising mainly QS-21 family components. Peak identity was supported by MS/MS.
Enzyme activity is calculated as the % conversion of the Middle Peak present in the crude bark extract: […]

[3] = Experiment 4-1: screening of glucosidases for deglycosylation with purified QS-18 (0.04 mg/ml) at pH 7.5 and room temperature; settings: pH 7.5, room temperature, 20 h, clarified E. coli lysate, QS-18 2150 to QS-21 1988 by LCMS/MS
Procedure, shortened: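 Candidate glucosidases expressed in E. coli BL21(DE3) (pET24b+, autoinduction, 20 °C for 20 h); clarified lysates in 100 mM potassium phosphate pH 7.5 incubated with QS-18 (0.04 mg/ml final) 20 h at room temperature. Quenched with MeCN, analysed by LC-MS/MS for % conversion; hits >3 S.D. above negative control.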

Molecule | Expt 4-2 % conv [1] | Expt 4-4 % conv [2] | Expt 4-1 % conv [3]
B1 | 0.9% | <3% | 9.2%
B2 | 0.9% | <3% | 6.3%
B3 | 0.9% | <3% | 13.6%
B4 | 0.5% | <3% | 6.3%
B5 | 0.5% | <3% | 9.0%
B6 | 0.4% | <3% | 10.2%
